Positions of bridges follow the written chain, without caps; N, C: chain ends. Non-standard residues stand in square brackets, D forms with d. p(HEMA-co-NHSMA) = copolymer of 2-hydroxyethyl methacrylate and N-hydroxysuccinimidyl ester methacrylate; Hyp = O=C(O)[C@@H]1C[C@@H](O)CN1
T1: Fibrin (pure fibrin clots formed from fibrinogen and thrombin), P02671
T1 chain 1: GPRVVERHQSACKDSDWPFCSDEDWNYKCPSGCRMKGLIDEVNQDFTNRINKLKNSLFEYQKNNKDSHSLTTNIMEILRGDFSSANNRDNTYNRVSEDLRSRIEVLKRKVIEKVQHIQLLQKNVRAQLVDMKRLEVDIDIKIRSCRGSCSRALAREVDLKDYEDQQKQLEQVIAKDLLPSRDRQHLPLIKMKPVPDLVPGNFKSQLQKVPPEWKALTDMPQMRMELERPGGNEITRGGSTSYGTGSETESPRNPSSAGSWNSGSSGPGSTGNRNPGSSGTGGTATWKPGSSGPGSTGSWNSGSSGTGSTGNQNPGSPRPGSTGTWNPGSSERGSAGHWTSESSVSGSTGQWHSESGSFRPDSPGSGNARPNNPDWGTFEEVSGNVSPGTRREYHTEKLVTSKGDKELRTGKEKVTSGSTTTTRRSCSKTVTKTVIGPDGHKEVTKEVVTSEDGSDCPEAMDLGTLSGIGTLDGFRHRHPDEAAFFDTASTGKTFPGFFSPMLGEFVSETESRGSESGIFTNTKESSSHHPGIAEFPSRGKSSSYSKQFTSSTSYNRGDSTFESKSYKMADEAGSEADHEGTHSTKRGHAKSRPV
T1 chain 2: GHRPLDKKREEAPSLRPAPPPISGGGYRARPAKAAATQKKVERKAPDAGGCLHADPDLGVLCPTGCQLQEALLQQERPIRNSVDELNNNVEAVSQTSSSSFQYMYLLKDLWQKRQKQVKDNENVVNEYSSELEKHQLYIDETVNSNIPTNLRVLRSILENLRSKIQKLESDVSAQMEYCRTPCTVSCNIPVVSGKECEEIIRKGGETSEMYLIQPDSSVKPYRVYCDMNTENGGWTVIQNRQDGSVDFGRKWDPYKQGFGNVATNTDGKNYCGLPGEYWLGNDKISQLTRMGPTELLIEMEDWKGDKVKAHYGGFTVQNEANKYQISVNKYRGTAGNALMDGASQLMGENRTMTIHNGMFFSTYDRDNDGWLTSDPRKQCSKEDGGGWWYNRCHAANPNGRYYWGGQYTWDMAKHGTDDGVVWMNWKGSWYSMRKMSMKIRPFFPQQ
T1 chain 3: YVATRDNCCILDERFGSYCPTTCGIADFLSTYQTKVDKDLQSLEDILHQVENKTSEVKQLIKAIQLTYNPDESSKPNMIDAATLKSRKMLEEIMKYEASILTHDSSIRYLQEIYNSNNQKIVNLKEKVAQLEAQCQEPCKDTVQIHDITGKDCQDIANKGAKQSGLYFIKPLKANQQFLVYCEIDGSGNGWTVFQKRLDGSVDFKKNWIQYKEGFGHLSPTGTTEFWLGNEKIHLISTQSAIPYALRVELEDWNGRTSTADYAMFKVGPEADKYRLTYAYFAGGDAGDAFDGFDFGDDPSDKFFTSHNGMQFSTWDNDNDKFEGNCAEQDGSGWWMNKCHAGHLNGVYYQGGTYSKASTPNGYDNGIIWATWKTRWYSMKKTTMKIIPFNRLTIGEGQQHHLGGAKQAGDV

T2: Fibrin (pure fibrin clots formed from fibrinogen and thrombin) (UniProt P02671 36-629; P02675 45-491; P02679 27-437, limits assumed)
T2 sequence (looked up) 1: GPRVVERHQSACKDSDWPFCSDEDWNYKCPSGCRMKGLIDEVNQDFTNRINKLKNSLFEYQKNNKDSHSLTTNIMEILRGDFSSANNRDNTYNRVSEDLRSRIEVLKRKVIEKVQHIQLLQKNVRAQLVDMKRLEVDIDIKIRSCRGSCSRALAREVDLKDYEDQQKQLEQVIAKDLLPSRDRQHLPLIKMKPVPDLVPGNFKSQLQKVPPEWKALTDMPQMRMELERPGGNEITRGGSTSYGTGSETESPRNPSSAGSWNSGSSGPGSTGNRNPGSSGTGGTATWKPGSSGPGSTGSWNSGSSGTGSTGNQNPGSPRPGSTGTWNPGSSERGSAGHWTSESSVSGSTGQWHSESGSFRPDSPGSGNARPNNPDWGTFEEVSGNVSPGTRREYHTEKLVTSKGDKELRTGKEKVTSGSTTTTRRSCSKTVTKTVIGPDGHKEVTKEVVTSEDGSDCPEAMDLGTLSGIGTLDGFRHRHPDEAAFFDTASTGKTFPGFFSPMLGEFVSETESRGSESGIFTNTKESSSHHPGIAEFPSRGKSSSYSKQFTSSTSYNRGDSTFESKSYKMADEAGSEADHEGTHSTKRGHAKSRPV
T2 sequence (looked up) 2: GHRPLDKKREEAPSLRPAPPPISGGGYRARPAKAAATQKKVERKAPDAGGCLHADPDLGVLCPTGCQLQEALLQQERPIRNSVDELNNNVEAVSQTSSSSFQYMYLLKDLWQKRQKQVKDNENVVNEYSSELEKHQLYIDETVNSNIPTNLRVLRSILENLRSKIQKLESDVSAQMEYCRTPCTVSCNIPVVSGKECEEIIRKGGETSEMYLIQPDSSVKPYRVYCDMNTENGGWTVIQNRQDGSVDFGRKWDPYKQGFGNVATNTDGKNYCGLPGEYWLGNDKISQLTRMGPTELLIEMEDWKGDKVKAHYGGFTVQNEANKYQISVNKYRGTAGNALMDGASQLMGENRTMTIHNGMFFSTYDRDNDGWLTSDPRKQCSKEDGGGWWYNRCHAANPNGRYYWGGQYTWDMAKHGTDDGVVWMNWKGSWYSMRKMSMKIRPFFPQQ
T2 sequence (looked up) 3: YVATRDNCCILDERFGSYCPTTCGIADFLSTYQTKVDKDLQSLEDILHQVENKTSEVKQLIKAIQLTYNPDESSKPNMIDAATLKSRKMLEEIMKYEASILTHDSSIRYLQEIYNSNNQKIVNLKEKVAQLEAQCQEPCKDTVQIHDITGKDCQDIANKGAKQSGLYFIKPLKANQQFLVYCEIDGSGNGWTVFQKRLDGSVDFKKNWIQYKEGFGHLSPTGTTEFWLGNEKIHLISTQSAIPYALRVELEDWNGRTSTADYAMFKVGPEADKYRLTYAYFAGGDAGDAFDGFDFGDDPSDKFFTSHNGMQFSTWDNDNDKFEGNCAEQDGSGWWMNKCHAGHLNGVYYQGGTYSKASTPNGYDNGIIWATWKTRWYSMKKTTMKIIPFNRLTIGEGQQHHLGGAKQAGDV


Columns and labels:
[1] = molecular target: T1, Fibrin (pure fibrin clots formed from …)
[2] = molecular target: T2, Fibrin (pure fibrin clots formed from …); assay: cell-based or functional assay

Row | Binder | pore radius of fibrin clots (permeation study) [1] [nm] | clot strength (MA, TEG) relative to controls [2] [times]
1 | Human Factor XIIIa (HFXIIIa) (protein) GVNLQEFLNVTSVHLFKERWDTNKVDHHTDKYENNKLIVRRGQSFYVQIDFSRPYDPRRDLFRVEYVIGRYPQENKGTYIPVPIVSELQSGKWGAKIVMREDRSVRLSIQSSPKCIVGKFRMYVAVWTPYGVLRTSRNPETDTYILFNPWCEDDAVYLDNEKEREEYVLNDIGVIFYGEVNDIKTRSWSYGQFEDGILDTCLYVMDRAQMDLSGRGNPIKVSRVGSAMVNAKDDEGVLVGSWDNIYAYGVPPSAWTGSVDILLEYRSSENPVRYGQCWVFAGVFNTFLRCLGIPARIVTNYFSAHDNDANLQMDIFLEEDGNVNSKLTKDSVWNYHCWNEAWMTRPDLPVGFGGWQAVDSTPQENSDGMYRCGPASVQAIKHGHVCFQFDAPFVFAEVNSDLIYITAKKDGTHVVENVDATHIGKLIVTKQIGGDGMMDITDTYKFQEGQEEERLALETALMYGAKKPLNTEGVMKSRSNVDMDFEVENAVLGKDFKLSITFRNNSHNRYTITAYLSANITFYTGVPKAEFKKETFDVTLEPLSFKKEAVLIQAGEYMGQLLEQASLHFFVTARINETRDVLAKQKSTVLTIPEIIIKVRGTQVVGSDMTVTVEFTNPLKETLRNVWVHLDGPGVTRPMKKMFREIRPNSTVQWEEVCRPWVSGHRKLIASMSSDSLRHVYGELDVQIQRRPSM | 286±18 | 
2 | Ac-Y[dE]C[Hyp]YGLCYIQGK(p(HEMA-co-NHSMA))-NH2 (other, disulfide 3-8; also: about 16 peptides grafted per polymer backbone) |  | 2.5

From patent US20160263148A1 (University of Washington, published 2016)
